pEC50: −log10 of the molar value.
These substances were tested against recombinant PD-L1 extracellur domain protein (UniProt Q9NZQ7) (assay: ELISA on recombinant PD-L1 extracellular domain protein).
recombinant PD-L1 extracellur domain protein, sequence (Q9NZQ7 19-238 limits assumed): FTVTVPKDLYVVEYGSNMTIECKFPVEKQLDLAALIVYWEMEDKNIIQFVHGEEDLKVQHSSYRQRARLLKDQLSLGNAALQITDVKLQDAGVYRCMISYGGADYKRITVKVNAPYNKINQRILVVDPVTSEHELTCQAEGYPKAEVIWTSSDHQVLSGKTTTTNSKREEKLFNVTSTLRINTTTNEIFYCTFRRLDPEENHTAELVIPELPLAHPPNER

First: HAC, high affinity PD-1 mutant (positive control)
Second: P048 (IgV domain of PD-1, Gene 048, on kappa chain, co-expressed with an empty IgG1 heavy chain) (from UniProt P01857 1-330)
The pEC50 of the first is higher: > 10.00 for the first, < 7.00 for the second. The first is the more potent here.

With “P050 (IgV domain of PD-1, lower affinity L128R mutant, Gene 050, on kappa chain, co-expressed with an empty IgG1 heavy chain) (from UniProt P01857 1-330)” the pEC50 was < 7.00.

The substances below were run against recombinant CD47 extracellur domain protein (UniProt Q08722) (assay: ELISA on recombinant CD47 extracellular domain protein).
recombinant CD47 extracellur domain protein, sequence (Q08722 19-139 limits assumed): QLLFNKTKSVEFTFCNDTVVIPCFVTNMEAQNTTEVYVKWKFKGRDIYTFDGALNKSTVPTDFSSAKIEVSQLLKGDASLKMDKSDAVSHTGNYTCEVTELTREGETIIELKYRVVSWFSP

First: CV1, high affinity SIRPa mutant (positive control)
Second: S007 (binding domain of human SIRPa, Gene 007, on human kappa light chain, co-expressed with an empty IgG1 heavy chain) (from UniProt P01834 1-107; P01857 1-330)
The pEC50 of the first is higher: > 10.00 for the first, < 7.00 for the second. The first is the more potent here.

For “S012 (binding domain of human SIRPa, Gene 012, on human kappa light chain, co-expressed with an empty IgG1 heavy chain) (from UniProt P01834 1-107; P01857 1-330)”, the pEC50 was < 7.00.

— patent US20210332135A1
